Reference: US20180282403A1, “AGENTS FOR REDUCING THE ACTIVITY OF GDF15” (GENAGON THERAPEUTICS AB, priority 2015, published 2018)

Biological target: T1, GDF15 (Homo sapiens, UniProt Q99988)
T1 construct: purchased Abcam
T1 sequence (Q99988 197-308 limits assumed): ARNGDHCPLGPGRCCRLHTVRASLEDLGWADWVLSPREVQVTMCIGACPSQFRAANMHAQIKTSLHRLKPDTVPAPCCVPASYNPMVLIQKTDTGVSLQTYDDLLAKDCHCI
Test: Pepstar peptide array: GDF15 binding to 15-mers of extracellular loop2 (ECD3) of QRFPR
Details: amino acid walk and alanine scan of 15-mers; FIG. 12
Source text: In order to determine the key amino acids and a minimal epitope present in the third extracellular domain of QRFPR (extracellular loop 2) we designed a Pepstar peptide array, purchased from JPT peptides. In short the array included complete coverage of the extracellular loop2 of QRFPR, divided into 15-mers. Peptides of this length (15-mers) were selected based on recommended length by the manufacturer, based on factors such as efficiency of synthesis, purity and yield by FMOC chemistry. The 15-mers were either varied according to amino acid walk, single or double alanine scan. Each set was analysed in triplicates. GDF15 was diluted into PBS-T (0.05% Tween-20) and incubated under mild agitation on an orbital shaker overnight at +4 C. Washes was done under agitation on a Sky line orbital shaker DOS-10L, ELMI.
Primary antibodies against GDF15 were added to wells with prior GDF15 incubation and to adjacent control wells where GDF15 had been omitted (only PBS-T) and incubated for 1 hr RT under agitation on orbital shaker. After repeated washes fluorophore-conjugated secondary antibodies were added, and after final washes the array was analysed on a G2502 Microarray scanner, Agilent Technologies. Fluorescence values from technical controls and control wells (no GDF15) were subtracted and resulting values in triplicate was analysed in Excel and Prism.

Sequence: FLYEKEHIC (listed as Homo sapiens) [SEQ ID NO:11]
- GDF15 binding to immobilised QRFPR ECD3 peptides: essential for GDF15 binding
